From paper PMC10673995, “Discovery of a novel cardiac-specific myosin modulator using artificial intelligence-based virtual screening” (Nature Communications, 2023)

Target: Rabbit skeletal F-actin (rabbit), P68135

- F-actin concentration dependence of the steady-state ATPase activity of bovine β-cardiac myosin S1 (NADH-coupled assay), Kapp in the absence and in the presence of 100 μmol/L F10: 20 µmol/L
B1: bovine β-cardiac myosin S1, Q9BE39 1-1935; P85100 1-199 (domain or fragment)
heavy: MVDAEMAAFGEAAPYLRKSEKERLEAQTRPFDLKKDVFVPDDKEEFVKATILSREGGKVTAETEHGKTVTVKEDQVLQQNPPKFDKIEDMAMLTFLHEPAVLYNLKERYASWMIYTYSGLFCVTINPYKWLPVYNAEVVAAYRGKKRSEAPPHIFSISDNAYQYMLTDRENQSILITGESGAGKTVNTKRVIQYFAVIAAIGDRSKKEQATGKGTLEDQIIQANPALEAFGNAKTVRNDNSSRFGKFIRIHFGATGKLASADIETYLLEKSRVIFQLKAERDYHIFYQILSNKKPELLDMLLITNNPYDYAFISQGETTVASIDDAEELMATDNAFDVLGFTTEEKNSMYKLTGAIMHFGNMKFKLKQREEQAEPDGTEEADKSAYLMGLNSADLLKGLCHPRVKVGNEYVTKGQNVQQVVYAKGALAKAVYERMFNWMVTRINATLETKQPRQYFIGVLDIAGFEIFDFNSFEQLCINFTNEKLQQFFNHHMFVLEQEEYKKEGIEWEFIDFGMDLQACIDLIEKPMGIMSILEEECMFPKATDMTFKAKLFDNHLGKSSNFQKPRNIKGKPEAHFSLIHYAGTVDYNIIGWLQKNKDPLNETVVDLYKKSSLKMLSSLFANYAGFDTPIEKGKGKAKKGSSFQTVSALHRENLNKLMTNLRSTHPHFVRCIIPNETKSPGVIDNPLVMHQLRCNGVLEGIRICRKGFPNRILYGDFRQRYRILNPAAIPEGQFIDSRKGAEKLLGSLDIDHNQYKFGHTKVFFKAGLLGLLEEMRDERLSRIITRIQAQSRGVLSRMEFKKLLERRDSLLIIQWNIRAFMGVKNWPWMKLYFKIKPLLKSAETEKEIALMKEEFGRLKEALEKSEARRKELEEKMVSLLQEKNDLQLQVQAEQDNLADAEERCDQLIKNKIQLEAKVKEMTERLEDEEEMNAELTAKKRKLEDECSELKRDIDDLELTLAKVEKEKHATENKVKNLTEEMAGLDEIIAKLTKEKKALQEAHQQALDDLQAEEDKVNTLTKAKVKLEQHVDDLEGSLEQEKKVRMDLERAKRKLEGDLKLTQESIMDLENDKQQLDERLKKKDFELNALNARIEDEQALGSQLQKKLKELQARIEELEEELEAERTARAKVEKLRSDLSRELEEISERLEEAGGATSVQIEMNKKREAEFQKMRRDLEEATLQHEATAAALRKKHADSVAELSEQIDNLQRVKQKLEKEKSEFKLELDDVTSNMEQIIKAKANLEKMCRTLEDQMNEHRSKAEETQRSVNDLTSQRAKLQTENGELSRQLDEKEALISQLTRGKLTYTQQLEDLKRQLEEEVKAKNALAHALQSARHDCDLLREQYEEETEAKAELQRVLSKANSEVAQWRTKYETDAIQRTEELEEAKKKLAQRLQDAEEAVEAVNAKCSSLEKTKHRLQNEIEDLMVDVERSNAAAAALDKKQRNFDKILAEWKQKYEESQSELESSQKEARSLSTELFKLKNAYEESLEHLETFKRENKNLQEEISDLTEQLGSSGKTIHELEKVRKQLEAEKLELQSALEEAEASLEQEEGKILRAQLEFNQIKAEMERKLAEKDEEMEQAKRNHLRVVDSLQTSLDAETRSRNEALRVKKKMEGDLNEMEIQLSHANRLAAEAQKQVKSLQSLLKDTQIQLDDAVRANDDLKENIAIVERRNNLLQAELEELRAVVEQTERSRKLAEQELIETSERVQLLHSQNTSLINQKKKMEADLSQLQTEVEEAVQECRNAEEKAKKAITDAAMMAEELKKEQDTSAHLERMKKNMEQTIKDLQHRLDEAEQIALKGGKKQLQKLEARVRELENELEAEQKRNAESVKGMRKSERRIKELTYQTEEDRKNLLRLQDLVDKLQLKVKAYKRQAEEAEEQANTNLSKFRKVQHELDEAEERADIAESQVNKLRAKSRDIGTKGLNEE
light: not shown
